# Results from publication PMC12576823.
# Molecular target: biotinylated cLDLR-TEV-Fc antigen (cleaved form of the low-density lipoprotein receptor) (UniProt P01130)
# Test: BLI; Octet RED384, room temperature; 20 nM biotinylated antigen-Fc immobilised on SA biosensor; monomeric Fab as analyte in PBS, 0.05% Tween-20, 0.2% BSA; 2:1 heterogeneous ligand model, global fit
# Sequence of UniProt P01130 (P01130 22-788): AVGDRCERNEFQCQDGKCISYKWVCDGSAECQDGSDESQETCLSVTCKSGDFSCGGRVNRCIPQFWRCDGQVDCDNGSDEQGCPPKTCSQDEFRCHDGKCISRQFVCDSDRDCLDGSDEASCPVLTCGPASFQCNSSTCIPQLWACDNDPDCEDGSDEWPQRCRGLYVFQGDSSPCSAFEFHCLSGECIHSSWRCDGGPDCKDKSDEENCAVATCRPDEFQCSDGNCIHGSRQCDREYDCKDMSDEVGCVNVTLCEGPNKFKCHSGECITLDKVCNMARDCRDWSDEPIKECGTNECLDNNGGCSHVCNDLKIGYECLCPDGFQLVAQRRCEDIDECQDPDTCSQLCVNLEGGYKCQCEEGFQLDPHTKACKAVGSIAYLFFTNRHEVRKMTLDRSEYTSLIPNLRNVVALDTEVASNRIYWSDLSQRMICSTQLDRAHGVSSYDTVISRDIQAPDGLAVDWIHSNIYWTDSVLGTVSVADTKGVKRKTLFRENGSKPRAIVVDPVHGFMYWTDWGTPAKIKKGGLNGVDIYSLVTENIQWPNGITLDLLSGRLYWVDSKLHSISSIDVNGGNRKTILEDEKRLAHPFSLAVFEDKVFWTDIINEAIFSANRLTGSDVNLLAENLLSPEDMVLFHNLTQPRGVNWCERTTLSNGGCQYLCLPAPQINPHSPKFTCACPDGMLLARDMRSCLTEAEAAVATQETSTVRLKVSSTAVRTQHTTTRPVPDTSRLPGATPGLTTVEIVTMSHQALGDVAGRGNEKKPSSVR
row,Kd [µM],Binder
1,0.016,"142F6 Fab (anti-LDLR) (Fab, V domains shown) VH: EVQLVESGGGLVQPGGSLRLSCAASGFNFSSSSIHWVRQAPGKGLEWVASIYSSSGYTYYADSVKGRFTISADTSKNTAYLQMNSLRAEDTAVYYCARKWYYGAMDYWGQGTLVTVSS VL: DIQMTQSPSSLSASVGDRVTITCRASQSVSSAVAWYQQKPGKAPKLLIYSASSLYSGVPSRFSGSRSGTDFTLTISSLQPEDFATYYCQQSSTIWTPLTFGQGTKVEIK"
2,0.0058,"142F1 Fab (anti-LDLR) (Fab, V domains shown) VH: EVQLVESGGGLVQPGGSLRLSCAASGFNVYSSSIHWVRQAPGKGLEWVASISSYYGSTYYADSVKGRFTISADTSKNTAYLQMNSLRAEDTAVYYCARWYGYGYYHPYYFGRSYGFDYWGQGTLVTVSS VL: DIQMTQSPSSLSASVGDRVTITCRASQSVSSAVAWYQQKPGKAPKLLIYSASSLYSGVPSRFSGSRSGTDFTLTISSLQPEDFATYYCQQEWQSLFTFGQGTKVEIK"
